In general, stoichiometry N refers to the number of molecules, sites or subunits per partner or assembly.

This experiment addresses RorSlfn5, Schlafen nuclease fused to an Ig-like domain, from Raoultella ornithinolytica (Raoultella ornithinolytica). Nature of the experiment: SEC-MALS. Background: SEC sorts molecules by how far they enter the pores of the column.

“RorSlfn5, Schlafen nuclease fused to an Ig-like domain, from Raoultella ornithinolytica (enzyme)” registered a stoichiometry N of 6.

Values taken from publication PMC13056530.
